T1: N-terminal FLAG-tagged fusion protein including most of the extracellular region of human IL-13Rα1 (human, UniProt P78552 29-343)
T1 construct: also called hIL-13Rα1.ECR; Human IL-13Rα1.ECR
T1 sequence: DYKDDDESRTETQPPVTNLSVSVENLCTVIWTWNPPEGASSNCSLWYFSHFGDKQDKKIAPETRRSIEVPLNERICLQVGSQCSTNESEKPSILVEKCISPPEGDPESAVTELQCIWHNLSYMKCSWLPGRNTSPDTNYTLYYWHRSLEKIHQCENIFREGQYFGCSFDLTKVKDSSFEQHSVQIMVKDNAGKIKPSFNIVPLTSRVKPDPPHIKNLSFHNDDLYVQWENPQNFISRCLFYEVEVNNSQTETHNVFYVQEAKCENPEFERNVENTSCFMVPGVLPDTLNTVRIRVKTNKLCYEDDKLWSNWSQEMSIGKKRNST

T2: cynomolgus IL-13Rα1.ECR, N-terminal FLAG-tagged fusion protein (cynomolgus macaque, UniProt P78552 27-343 (human entry))
T2 construct: also called cyIL-13Rα1; Cynomolgus IL13Rα.ECR; not shown: N-terminal FLAG tag from the pEFBOS-S-FLAG vector
T2 chain: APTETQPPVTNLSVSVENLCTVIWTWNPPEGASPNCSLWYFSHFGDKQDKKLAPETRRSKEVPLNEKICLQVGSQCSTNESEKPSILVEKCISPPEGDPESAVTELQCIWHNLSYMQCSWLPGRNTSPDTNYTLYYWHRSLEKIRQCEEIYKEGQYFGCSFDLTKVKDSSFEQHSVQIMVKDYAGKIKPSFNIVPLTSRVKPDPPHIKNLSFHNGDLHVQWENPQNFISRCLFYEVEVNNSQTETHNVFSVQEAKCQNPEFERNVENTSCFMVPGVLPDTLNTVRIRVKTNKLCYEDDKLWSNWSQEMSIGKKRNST


Experiments:
[1] = target: T1, N-terminal FLAG-tagged fusion protein …; assay: BIACORE, hIL-13Rα1.ECR immobilized on CM5 chip, mAb in solution, bivalent model
Source text: BIACORE™-Based Studies. […] Ethanolamine (1.0 M), pH 8.0 was used to quench residual active esters post hIL-13Rα1.ECR immobilization.
Sensorgrams generated were fitted to a bivalent ligand binding model to simultaneously derive association (kₐ) and dissociation (kd) rates and used to determine binding affinity (KD, Biaevaluation software, BIACORE™, Sweden).

[2] = target: T1, N-terminal FLAG-tagged fusion protein …; assay: BIACORE, receptor ECR immobilized on CM5 chip, mAb in solution
[3] = target: T2, cynomolgus IL-13Rα1.ECR, N-terminal …; assay: as above

| Binder | Kd [1] [nM] | Kd [2] [nM] | Kd [3] [nM] |
| --- | --- | --- | --- |
| human monoclonal antibody 15F4 (antibody, V domains shown, also called mAb 15F4; hybridoma ATCC PTA-6935) VH: QVQLVESGGGVVQPGRSLRLSCAASGFTFSSYGMHWVRQAPGKGLEWVAVIWDDGSNKYYEVSVKGRFTISRDNSKNTLYLQMNSLRVEDTAVYYCARDSNNWYVGVFDIWGQGTMVTVSS VL: not shown | ~2.17 | – | – |
| monoclonal antibody 8B4 (antibody, V domains shown) VH: EVQVLESGGGLVQPGGSLRLSCAASGFTFSNYAMTWVRQAPGKGLEWVSTISGRGYSIYYADSVKGRFTISRDNSKNTVYLQMNSLRAEDTAVYYCAKEEGHWYFDVWGRGTLVTVSS VL: EIVLTQSPDFQSVTPKEKVTITCRASQSIGSSLHWYQQKPDQSPKLLIKYASQSFSGVPSRFSGSGSGTDFTLTINSLEAEDAAAYYCHQSSSLPYTFGQGTKLEIK | – | 4.6 | 0.59 |

Source: US20110052597A1 (CSL, published 2011)
